Numbering of substitutions follows the chain as printed. Where “and” joins values, the source holds several entries; their conditions need not be identical. Identical values can stand only once.
Legend:
IL-8 [1] = molecular target: T1, IL-8 (UniProt P10145 28-99, limits assumed); test: SPR, lower panel; no pH label is printed on this sheet (the lower panel of Fig.4A is pH6.0; the text names pH 7.4 and pH 6.0)
T1 construct: also called Interleukin-8; immobilized IL-8
T1 sequence (looked up): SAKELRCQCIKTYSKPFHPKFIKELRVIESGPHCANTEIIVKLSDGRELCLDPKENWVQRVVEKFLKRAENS
Protocol: (§1) In yet another set of experiments, the inventors used affinity maturation (here: random mutagenesis of CDR regions in VH and VL chains and mRNA display selection) of one previously identified IL-8 binder (here: 43-12, sequence in Table 1), and SPR analysis was performed on selected mutant forms using two different pH conditions, pH 7.4 and pH 6.0.

IL-8 [2] = molecular target: T1, IL-8; test: SPR, upper panel; no pH label is printed on this sheet (the upper panel of Fig.4A is pH7.4; the text names pH 7.4 and pH 6.0)
Protocol: as §1

IL-8 [3] = molecular target: T1, IL-8; test: SPR, immobilized IL-8, IgG, 37 C
Protocol: (§2) Here, scFv and corresponding humanized IgG₁ were prepared using the sequences as indicated, and KD was determined using SPR with immobilized IL-8 as […] on the chip surface. All values are expressed as nanoM values at temperatures as indicated.

IL-8 [4] = molecular target: T1, IL-8; test: SPR, immobilized IL-8, IgG1, 25 C
Protocol: as §2

IL-8 [5] = molecular target: T1, IL-8; test: SPR, IgG1, 25 C, pH 7.4, preliminary KD
Excerpt: (§3) The inventors contemplate that the binding affinities of the scFv, recombinant antibody or fragment thereof, to IL-8 may be different due to the structural differences even if the scFv, recombinant antibody or fragment thereof, are generated using the same amino acid sequences of VH segment and/or VL segments. For example, Table 2 provides different affinities (measured in KD value) of scFv and recombinant antibody (IgG1) of several clones. Clone 49-31 is a scFv or a recombinant antibody (IgG1) generated using amino acid sequences encoding VH segment (SEQ ID No. 1) and VL segment (SEQ ID No. 16), Clone 43-2 is a scFv or a recombinant antibody (IgG1) generated using amino acid sequences encoding VH segment (SEQ ID No. 8) and VL segment (SEQ ID No. 23), and Clone 43-12 is a scFv or a recombinant antibody (IgG1) generated using amino acid sequences encoding VH segment (SEQ ID No.10) and VL segment (SEQ ID No. 25). Preliminary KD values are determined by surface plasmon resonance measurement, and highest and lowest values are shown to estimate the range of the affinities to IL-8.

IL-8 [6] = molecular target: T1, IL-8; test: SPR, IgG1, 37 C, pH 7.4, preliminary KD, lowest and highest value
Excerpt: as §3

IL-8 [7] = molecular target: T1, IL-8; test: SPR, IgG1, 37 C, pH 7.4, preliminary KD
Excerpt: as §3

IL-8 [8] = molecular target: T1, IL-8; test: SPR, IgG1, 25 C, pH 6.0, preliminary KD, lowest and highest value
Excerpt: as §3

IL-8 [9] = molecular target: T1, IL-8; test: SPR, IgG1, 25 C, pH 7.4, preliminary KD, lowest and highest value
Excerpt: as §3

IL-8 [10] = molecular target: T1, IL-8; test: SPR, IgG1, 37 C, pH 7.4, preliminary KD; IgG1, 37 C, pH 7.4
Excerpt: as §3

IL-8 [11] = molecular target: T1, IL-8; test: SPR, IgG1, 25 C, pH 7.4, preliminary KD, lowest and highest value; lowest value of the range; IgG1, 25 C, pH 7.4
Excerpt: as §3

IL-8 [12] = molecular target: T1, IL-8; test: SPR, immobilized IL-8, scFv, 25 C
Protocol: as §2

IL-8 [13] = molecular target: T1, IL-8; test: SPR, scFv, preliminary KD
Excerpt: as §3

B1: scFv 43-12b (scFv, V domains shown)
VH: EVQLVESGGGLVQPGGSLRLSCAASGFTFSSYLMHWVRQAPGKGLEWVSAISGSGGITYYADSVKGRFTISRDNSKNTLYLQMNSLRAEDTAVYYCARDREGWFWHSYGFDVWGQGTLVTVSS
VL: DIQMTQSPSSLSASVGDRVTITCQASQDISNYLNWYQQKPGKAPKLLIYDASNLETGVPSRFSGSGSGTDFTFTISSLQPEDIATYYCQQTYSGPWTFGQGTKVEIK
notes: Derived from 43-12 by random mutagenesis of the CDRs and mRNA display
Which results are given for B1?
Kd (IL-8 [1]): 2.3 nM; koff (IL-8 [1]): 0.00076 s⁻¹; kon (IL-8 [1]): 330000 M⁻¹ s⁻¹; Kd (IL-8 [2]): 2 nM; koff (IL-8 [2]): 0.0002 s⁻¹; kon (IL-8 [2]): 100000 M⁻¹ s⁻¹

B2: recombinant antibody (IgG1) 43-2 (antibody, V domains shown)
VH: EVQLVESGGGLVQPGGSLRLSCAASGFTFSSYAMHWVRQAPGKGLEWVSAISGSGGKTYYADSVKGRFTISRDNSKNTLYLQMNSLRAEDTAVYYCARDREAPFYTVYVTGFDVWGQGTLVTVSS
VL: DIQMTQSPSSLSASVGDRVTITCQASQDISNYLNWYQQKPGKAPKLLIYDASNLETGVPSRFSGSGSGTDFTFTISSLQPEDIATYYCQQDADTPLTFGQGTKVEIK
notes: IgG1 ('corresponding humanized IgG1'); also called 43-2 IgG1; Clone 43-2
Which Kd (IL-8 [3]) does the source give for B2 here?
Its Kd is 0.72 to 0.89 nM.

What about the Kd (IL-8 [4]) of the same binder?
Its Kd is 0.79 nM.

What about the Kd (IL-8 [5]) of the same binder?
The Kd was 0.79 nM.

And the Kd (IL-8 [6])?
Its Kd is 0.72 nM and 0.89 nM.

B3: recombinant antibody (IgG1) 43-12 (antibody, V domains shown)
VH: B1 VH with I57S
VL: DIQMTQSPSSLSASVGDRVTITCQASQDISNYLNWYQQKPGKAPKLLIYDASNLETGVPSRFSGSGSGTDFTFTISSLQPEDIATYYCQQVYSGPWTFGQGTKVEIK
notes: IgG1 ('corresponding humanized IgG1'); also called 43-12 IgG1; Clone 43-12
What does the source list for B3?
Kd (IL-8 [3]): 0.31 nM; Kd (IL-8 [4]): 0.43 to 0.78 nM; Kd (IL-8 [7]): 0.31 nM; Kd (IL-8 [8]): 3.46 to 6.7 nM; Kd (IL-8 [9]): 0.43 to 0.78 nM

B4: recombinant antibody (IgG1) 49-31 (antibody, V domains shown)
VH: EVQLVESGGGLVQPGGSLRLSCAASGFTFSSYYMHWVRQAPGKGLEWVSAISGGGSSTYYADSVKGRFTISRDNSKNTLYLQMNSLRAEDTAVYYCARDLRIFEGRDAGFDVWGQGTLVTVS
VL: B2 VL with A92D, T94V, L96W
notes: IgG1 ('corresponding humanized IgG1'); also called 49-31 IgG1; Clone 49-31
For B4, which Kd (IL-8 [3]) is on record?
Its Kd is 0.12 nM.

And the Kd (IL-8 [4])?
Its Kd is 0.099 to 0.25 nM.

And the Kd (IL-8 [10])?
The Kd was 0.117 nM.

And the Kd (IL-8 [8])?
The Kd was 0.21 to 0.22 nM.

And the Kd (IL-8 [11])?
The Kd was 0.009 to 0.25 nM.

B5: scFv 49-22 (scFv, V domains shown)
VH: EVQLVESGGGLVQPGGSLRLSCAASGFTFTSYAMHWVRQAPGKGLEWVSAISGSGGSTYYADSVKGRFTISRDNSKNTLYLQMNSLRAEDTAVYYCARDLDMFVPFWPAFDVWGQGTLVTVSS
VL: B2 VL with D91A, A92S
notes: also called Clone 49-22
With B5 as the binder, how does the Kd (IL-8 [12]) read?
The Kd was 0.11 to 0.114 nM.

B6: scFv 49-7 (scFv, V domains shown)
VH: EVQLVESGGGLVQPGGSLRLSCAASGFTFSSYAMHWVRQAPGKGLEWVSAISNSGASTYYADSVKGRFTISRDNSKNTLYLQMNSLRAENTAVYYCARDLMRWWIDGFDVWGQGTLVTVSS
VL: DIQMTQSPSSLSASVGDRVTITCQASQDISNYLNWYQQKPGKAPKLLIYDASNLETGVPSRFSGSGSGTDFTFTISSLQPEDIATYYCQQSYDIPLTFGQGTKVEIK
notes: also called Clone 49-7
B6 was tested. Which Kd (IL-8 [12]) did it give?
The Kd was 0.087 to 0.17 nM.

B7: scFv 49-32 (scFv, V domains shown)
VH: EVQLVESGGGLVQPGGSLRLSCAASGFTFSSYAMHWVRQAPGKGLEWVSAIYGNGGSTYYADSVKGRFTISRDNSKNTLYLQMNSLRAEDTAVYYCARDLYTIEPREAFDVWGQGTLVTVSS
VL: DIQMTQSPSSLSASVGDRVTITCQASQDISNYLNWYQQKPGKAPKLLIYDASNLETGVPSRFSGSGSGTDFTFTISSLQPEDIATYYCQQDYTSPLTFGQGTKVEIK
notes: also called Clone 49-32
For B7, which Kd (IL-8 [12]) is on record?
The Kd was 0.21 to 0.24 nM.

B8: IgG1 49-32 (antibody, V domains shown)
VH: B7 VH
VL: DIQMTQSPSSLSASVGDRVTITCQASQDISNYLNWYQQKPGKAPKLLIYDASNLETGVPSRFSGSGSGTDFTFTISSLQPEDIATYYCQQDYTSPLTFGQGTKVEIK
notes: also called 49-32 IgG1; Clone 49-32
How did the Kd (IL-8 [3]) turn out when B8 was run?
Its Kd is 0.33 to 0.36 nM.

What about the Kd (IL-8 [4]) of the same binder?
The Kd was 0.77 to 0.87 nM.

B9: scFv 49-34 (scFv, V domains shown)
VH: EVQLVESGGGLVQPGGSLRLSCAASGFTLGSYAMHWVRQAPGKGLEWVSAISGSGGSTYYADSVKGRFTISRDNSKNTLYLQMNSLRAEDTAVYYCARDRDTVSIEVGFDVWGQGTLVTVSS
VL: B2 VL with A92S, D93A, T94F
notes: also called Clone 49-34
B9 was tested. Which Kd (IL-8 [12]) did it give?
The Kd was 0.44 to 0.62 nM.

B10: scFv 49-18 (scFv, V domains shown)
VH: EVQLVESGGGLVQPGGSLRLSCAASGFTFSSYAMNWVRQAPGKGLEWVSAISWSGGNTYYADSVKGRFTISRDNSKNTLYLQMNSLRAEDTAVYYCARDLYAGYWGFDVWGQGTLVTVSS
VL: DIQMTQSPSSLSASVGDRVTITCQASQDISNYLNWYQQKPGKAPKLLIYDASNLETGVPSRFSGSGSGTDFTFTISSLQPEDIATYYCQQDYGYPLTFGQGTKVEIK
notes: also called Clone 49-18
B10 was tested. Which Kd (IL-8 [12]) did it give?
Its Kd is 0.41 to 0.89 nM.

B11: scFv 49-3 (scFv, V domains shown)
VH: EVQLVESGGGLVQPGGSLRLSCAASGFTFSSYAMTWVRQAPGKGLEWVSVISGSGGSTRYADSVKGRFTISRDNSKNTLYLQMNSLRAEDTAVYYCARDRKFPYVQFFRNGFDVWGQGTLVTVSS
VL: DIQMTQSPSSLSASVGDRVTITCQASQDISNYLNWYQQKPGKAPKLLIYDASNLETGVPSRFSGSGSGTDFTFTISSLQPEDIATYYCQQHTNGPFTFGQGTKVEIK
notes: also called Clone 49-3
B11 was tested. Which Kd (IL-8 [12]) did it give?
The Kd was 1.26 nM.

B12: IgG1 49-3 (antibody, V domains shown)
VH: B11 VH
VL: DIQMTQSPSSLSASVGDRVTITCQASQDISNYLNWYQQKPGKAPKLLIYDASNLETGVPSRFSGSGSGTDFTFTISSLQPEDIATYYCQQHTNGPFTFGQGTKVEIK
notes: also called 49-3 IgG1; Clone 49-3
B12 was tested. Which Kd (IL-8 [3]) did it give?
The Kd was 9.19 nM.

And the Kd (IL-8 [4])?
Its Kd is 2.14 nM.

B13: scFv 43-2 (scFv, V domains shown)
VH: B2 VH
VL: B2 VL
notes: also called Clone 43-2
How did the Kd (IL-8 [13]) turn out when B13 was run?
The Kd was 1.41 nM.

What about the Kd (IL-8 [12]) of the same binder?
Its Kd is 1.41 nM.

From patent US20200377587A1 (NANTBIO, published 2020)
